Measured values as given in patent publication US20060148030A1, “Nuclear receptor err y 3” (FUJISAWA PHARMACEUTICAL CO., LTD, priority 2002, published 2006).

Target: T1, ERα (Homo sapiens, UniProt P03372)
T1 construct: expressed in transfected cells; host or cells: CV-1 (African green monkey kidney)
T1 sequence (P03372 1-595): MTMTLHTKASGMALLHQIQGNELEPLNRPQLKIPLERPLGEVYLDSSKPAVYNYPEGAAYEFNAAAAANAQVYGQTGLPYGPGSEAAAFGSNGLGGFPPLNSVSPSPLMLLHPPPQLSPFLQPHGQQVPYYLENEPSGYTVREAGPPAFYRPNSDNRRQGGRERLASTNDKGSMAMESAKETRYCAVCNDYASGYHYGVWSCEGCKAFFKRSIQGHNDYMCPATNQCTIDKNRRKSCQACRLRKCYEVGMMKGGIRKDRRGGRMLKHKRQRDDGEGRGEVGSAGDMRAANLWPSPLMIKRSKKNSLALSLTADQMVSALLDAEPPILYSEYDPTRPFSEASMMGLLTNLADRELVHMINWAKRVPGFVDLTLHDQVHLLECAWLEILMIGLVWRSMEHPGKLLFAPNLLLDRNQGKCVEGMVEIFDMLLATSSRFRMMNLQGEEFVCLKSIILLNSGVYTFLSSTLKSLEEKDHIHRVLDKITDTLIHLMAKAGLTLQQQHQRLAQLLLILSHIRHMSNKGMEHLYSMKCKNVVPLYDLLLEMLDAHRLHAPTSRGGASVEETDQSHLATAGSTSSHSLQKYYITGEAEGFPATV
Test: Reporter gene assay, ERRγ3 or ERRγ2 coexisted with ERα in CV-1 cells
Format: cell-based
Details: ERRγ2 with ERα, CV-1 cells; FIGS. 19-20
Protocol: The reporter gene assay was performed using CV-1 cells (African green monkey kidney-derived cell line) as hosts. Host cells were transfected with luciferase reporter plasmids and expression plasmids for ERRγ3, ERRγ2, or both. They were then exposed to 4-hydroxytamoxifen at different concentrations (0, 10^−10 to −10^−5 M) for 24 hours, whereupon luciferase activity within the cells was measured.
Transfection was performed as follows: CV-1 cells were suspended at 2×10^5 cells/2.5 ml in DMEM medium supplemented with 10% fetal bovine serum, 2000 U/l of penicillin G, and 100 mg/l streptomycin. These cells were seeded to a 6-well plate at 2.5 ml/well, and cultured for 18 to 24 hours in a CO2 incubator at 37° C. in the presence of 5% CO2. 1 μg of each of the transcription factor expression plasmid, the luciferase reporter plasmid, and another luciferase reporter plasmid for normalizing the measured value (pRL-TK), were dissolved in Opti-MEM (Gibco BRL) to total of 150 μl. 7 μl of the cell transfection reagent LipofectAMINE 2000 (Gibco BRL) was diluted in 143 μl of Opti-MEM, and this was added to the mixture drop by drop while stirring. The mixture was incubated for 20 minutes.
The LipofectAMINE-DNA mixture was diluted in 1.5 ml of Opti-MEM, and added to cells that had been twice washed with 1 ml of PBS(−). The cells were cultured for four hours. The transfection reagent was removed from the culture, and 200 μl of trypsin/EDTA was added to the cells, which were then incubated at 37° C. for five minutes. […] of DMEM was added to suspend the cells, which were transferred to a centrifuge tube, and centrifuged for three minutes at 1000 rpm. After centrifugation, the cells were resuspended in DMEM to a concentration of 1.6×10^4 cells/100 μl, and 100 μl samples were seeded to a 96-well plate. When evaluating agents, a two-fold concentrated solution was made by pre-diluting a 1000 times concentrated agent DMSO solution with culture medium. 50 μl of the solution was mixed with 50 μl of a cell suspension at 1.6×10^4 cells/50 μl, and the culture was incubated in a CO2 incubator at 37° C. and 5% CO2 for 24 hours.
Luciferase activity was measured using the Dual-Luciferase™ Reporter Assay System (Promega). The culture supernatant was removed from each well of the 96-well plate and washed once with 100 μl of PBS(−). 20 μl of ×1 PLB (Passive Lysis Buffer) was added, and the mixture was incubated at room temperature for 15 minutes, and then stored at −20° C. in the freezer until use. […] The protocol for measurement was as follows: 50 μl of Luciferase Assay Reagent II was added to each well, stirred for 0.3 seconds and measured for one second. […] of Stop&Glo™ Reagent was then added, stirred for 0.3 seconds, and measured for one second. […] Average values and standard errors were calculated from triplicate samples.
To confirm whether or not ERRγ3 can regulate the transcription-controlling function of nuclear receptors other than ERRγ2, ERRγ3's function of regulating the transcription-controlling activity of nuclear receptors related to ERRγ (ERα, ERβ, and TR) was evaluated using a reporter gene assay. […] In addition to 4-hydroxytamoxifen, the cells were also contacted with 10^−5 M of (R)-estradiol in experiments related to ERα and ERβ, and 10^−5 M of thyroxine in the experiment related to TR.
The transfected cells were contacted with varying concentrations of 4-hydroxytamoxifen in the absence of […] or presence of 10^−7 M of β-estradiol.

B1: ERRγ2: known human ERRγ isoform, the long form (SEQ ID NO: 6) (protein, listed as Homo sapiens)
chain: MDSVELCLPESFSLHYEEELLCRMSNKDRHIDSSCSSFIKTEPSSPASLTDSVNHHSPGGSSDASGSYSSTMNGHQNGLDSPPLYPSAPILGGSGPVRKLYDDCSSTIVEDPQTKCEYMLNSMPKRLCLVCGDIASGYHYGVASCEACKAFFKRTIQGNIEYSCPATNECEITKRRRKSCQACRFMKCLKVGMLKEGVRLDRVRGGRQKYKRRIDAENSPYLNPQLVQPAKKPYNKIVSHLLVAEPEKIYAMPDPTVPDSDIKALTTLCDLADRELVVIIGWAKHIPGFSTLSLADQMSLLQSAWMEILILGVVYRSLSFEDELVYADDYIMDEDQSKLAGLLDLNNAILQLVKKYKSMKLEKEEFVTLKAIALANSDSMHIEDVEAVQKLQDVLHEALQDYEAGQHMEDPRRAGKMLMTLPLLRQTSTKAVQHFYNIKLEGKVPMHKLFLEMLEAKV
enhancement of transcription when ERRγ2 coexisted with ERα: showed the function of enhancing transcription
